Our source for the lowest crystallin concentration which efficiently inhibits α-syn fibril formation (ThT, 20 μM α-syn monomer, 1 μM α-syn seeds, pH 5.5, 37°C); the same value is also printed as 4.75 μM monomers values is publication PMC7323979.

The test concerns the target α-synuclein fibrils (preformed seeds) (human) (UniProt P37840).

bovine γB-crystallin, sequence (P02526 whole entry): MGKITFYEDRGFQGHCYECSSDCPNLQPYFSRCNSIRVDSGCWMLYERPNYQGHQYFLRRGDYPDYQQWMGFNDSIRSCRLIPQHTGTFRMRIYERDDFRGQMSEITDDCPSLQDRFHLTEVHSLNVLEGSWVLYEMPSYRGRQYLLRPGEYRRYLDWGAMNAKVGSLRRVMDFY

“bovine γB-crystallin (from UniProt P02526 1-175) (natural protein)” had a lowest crystallin concentration which efficiently inhibits α-syn fibril formation (ThT, 20 μM α-syn monomer, 1 μM α-syn seeds, pH 5.5, 37°C); the same value is also printed as 4.75 μM monomers of 0.1 mg/ml.
